Columns and labels:
[1] = system: tet-on competent MLL/AF9+Nras AML; assay: Pooled negative selection RNAi screening (deep sequencing); assay type: cell-based, mouse; details: deep sequencing reads, On Dox compared to T0
Outline: (§1)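 A pool of 1230 tet-regulated shRNAs (TRMPV-type) was retrovirally transduced at mostly single copy and ~1000-fold representation into tet-on MLL/AF9+Nras AML cells or immortalized murine embryonic fibroblasts, then cultured on or off doxycycline. shRNA-expressing cells were FACS-sorted, and shRNA representation was quantified by PCR and deep sequencing of genomic DNA, with depletion on dox compared against t0 and off dox.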

[2] = system: immortalized murine embryonic fibroblasts (Mef); assay: as above; assay type: cell-based; details: deep sequencing reads, on dox compared to initial representation
Outline: as §1

B1: Hexa.1510: shRNA, SEQ ID NO: 131 (nucleic acid)
chain: TGCTGTTGACAGTGAGCGAGAGCAGTAACCTGACAACTAATAGTGAAGCCACAGATGTATTAGTTGTCAGGTTACTGCTCCTGCCTACTGCCTCGGA
B1 was tested, and the “Fold depletion in AML” value [1] was 1,777.36 Fold and the “Fold depletion in Mef” value [2] was 2.13 Fold.

B2: Mgst1.549: shRNA, SEQ ID NO: 142 (nucleic acid)
chain: TGCTGTTGACAGTGAGCGCAAGGAGCAGACTGTACTTGTATAGTGAAGCCACAGATGTATACAAGTACAGTCTGCTCCTTATGCCTACTGCCTCGGA
In the case of B2, the “Fold depletion in AML” value [1] is reported as 9.14 Fold and the “Fold depletion in Mef” value [2] is reported as 1.09 Fold.

B3: Acpp.818: shRNA, SEQ ID NO: 87 (nucleic acid)
chain: TGCTGTTGACAGTGAGCGAAAAGAGAAATCTCGACTCCAATAGTGAAGCCACAGATGTATTGGAGTCGAGATTTCTCTTTCTGCCTACTGCCTCGGA
For B3, the “Fold depletion in AML” value [1] was 9.00 Fold and the “Fold depletion in Mef” value [2] was 0.85 Fold.

B4: Dnajc10.2057: shRNA, SEQ ID NO: 113 (nucleic acid)
chain: TGCTGTTGACAGTGAGCGCTCCAACGACAGTGGTATTCAATAGTGAAGCCACAGATGTATTGAATACCACTGTCGTTGGATTGCCTACTGCCTCGGA
In the case of B4, the “Fold depletion in AML” value [1] is reported as 8.99 Fold and the “Fold depletion in Mef” value [2] is reported as 1.47 Fold.

B5: Ntrk3.167: shRNA, SEQ ID NO: 156 (nucleic acid)
chain: TGCTGTTGACAGTGAGCGCCTGCAGCAAGACTGAGATCAATAGTGAAGCCACAGATGTATTGATCTCAGTCTTGCTGCAGATGCCTACTGCCTCGGA
In the case of B5, the “Fold depletion in AML” value [1] is reported as 8.88 Fold and the “Fold depletion in Mef” value [2] is reported as 1.76 Fold.

B6: Gart.2713: shRNA, SEQ ID NO: 127 (nucleic acid)
chain: TGCTGTTGACAGTGAGCGAACCAGGGTAATTAATCACAAATAGTGAAGCCACAGATGTATTTGTGATTAATTACCCTGGTGTGCCTACTGCCTCGGA
B6 was tested, and the “Fold depletion in AML” value [1] was 8.73 Fold and the “Fold depletion in Mef” value [2] was 2.22 Fold.

B7: Ogg1.395: shRNA, SEQ ID NO: 157 (nucleic acid)
chain: TGCTGTTGACAGTGAGCGACAGATCAAGTATGGACACTGATAGTGAAGCCACAGATGTATCAGTGTCCATACTTGATCTGCTGCCTACTGCCTCGGA
B7 was tested, and the “Fold depletion in AML” value [1] was 8.69 Fold and the “Fold depletion in Mef” value [2] was 1.44 Fold.

B8: Smpd2.592: shRNA, SEQ ID NO: 183 (nucleic acid)
chain: TGCTGTTGACAGTGAGCGACAGCATGTCTACAGTCTGAATTAGTGAAGCCACAGATGTAATTCAGACTGTAGACATGCTGGTGCCTACTGCCTCGGA
B8 was tested, and the “Fold depletion in AML” value [1] was 8.63 Fold and the “Fold depletion in Mef” value [2] was 2.89 Fold.

B9: Fas.1344: shRNA, SEQ ID NO: 118 (nucleic acid)
chain: TGCTGTTGACAGTGAGCGCGAGGAGAATTATAAACTGAAATAGTGAAGCCACAGATGTATTTCAGTTTATAATTCTCCTCATGCCTACTGCCTCGGA
With B9 the “Fold depletion in AML” value [1] was 8.57 Fold and the “Fold depletion in Mef” value [2] was 1.36 Fold.

B10: AU018778.350: shRNA, SEQ ID NO: 94 (nucleic acid)
chain: TGCTGTTGACAGTGAGCGCCTGAAGATTGCCTGTACCTAATAGTGAAGCCACAGATGTATTAGGTACAGGCAATCTTCAGATGCCTACTGCCTCGGA
B10 was tested, and the “Fold depletion in AML” value [1] was 8.45 Fold and the “Fold depletion in Mef” value [2] was 1.18 Fold.

B11: Centa1.940: shRNA, SEQ ID NO: 106 (nucleic acid)
chain: TGCTGTTGACAGTGAGCGCCCGAAGGCTCATGTACTTCAATAGTGAAGCCACAGATGTATTGAAGTACATGAGCCTTCGGTTGCCTACTGCCTCGGA
For B11, the “Fold depletion in AML” value [1] was 8.24 Fold and the “Fold depletion in Mef” value [2] was 1.13 Fold.

B12: Ccr1.733: shRNA, SEQ ID NO: 101 (nucleic acid)
chain: TGCTGTTGACAGTGAGCGCCTGGATTGACTACAAGTTGAATAGTGAAGCCACAGATGTATTCAACTTGTAGTCAATCCAGATGCCTACTGCCTCGGA
In the case of B12, the “Fold depletion in AML” value [1] is reported as 472.15 Fold and the “Fold depletion in Mef” value [2] is reported as 1.18 Fold.

B13: Nrp1.479: shRNA, SEQ ID NO: 155 (nucleic acid)
chain: TGCTGTTGACAGTGAGCGCACCCTCATTCTTACCATCCAATAGTGAAGCCACAGATGTATTGGATGGTAAGAATGAGGGTATGCCTACTGCCTCGGA
B13 was tested, and the “Fold depletion in AML” value [1] was 8.19 Fold and the “Fold depletion in Mef” value [2] was 0.83 Fold.

B14: Ptpn18.247: shRNA, SEQ ID NO: 170 (nucleic acid)
chain: TGCTGTTGACAGTGAGCGCCACGAACAAGAACCGCTACAATAGTGAAGCCACAGATGTATTGTAGCGGTTCTTGTTCGTGTTGCCTACTGCCTCGGA
B14 was tested, and the “Fold depletion in AML” value [1] was 8.13 Fold and the “Fold depletion in Mef” value [2] was 0.21 Fold.

B15: Nrg4.1358: shRNA, SEQ ID NO: 153 (nucleic acid)
chain: TGCTGTTGACAGTGAGCGCCAGACATGTTGAAGTGAATAATAGTGAAGCCACAGATGTATTATTCACTTCAACATGTCTGTTGCCTACTGCCTCGGA
B15 was tested, and the “Fold depletion in AML” value [1] was 8.11 Fold and the “Fold depletion in Mef” value [2] was 0.54 Fold.

B16: Rock2.3898: shRNA, SEQ ID NO: 174 (nucleic acid)
chain: TGCTGTTGACAGTGAGCGCCAGATTCTATATGCCAATGAATAGTGAAGCCACAGATGTATTCATTGGCATATAGAATCTGATGCCTACTGCCTCGGA
B16 was tested, and the “Fold depletion in AML” value [1] was 8.10 Fold and the “Fold depletion in Mef” value [2] was 1.04 Fold.

B17: Nln.1429: shRNA, SEQ ID NO: 151 (nucleic acid)
chain: TGCTGTTGACAGTGAGCGAAAGGATAAAGCTACTGGAGAATAGTGAAGCCACAGATGTATTCTCCAGTAGCTTTATCCTTCTGCCTACTGCCTCGGA
B17 was tested, and the “Fold depletion in AML” value [1] was 8.03 Fold and the “Fold depletion in Mef” value [2] was 1.61 Fold.

B18: Cdc42ep3.1922: shRNA, SEQ ID NO: 104 (nucleic acid)
chain: TGCTGTTGACAGTGAGCGCAACAAGCAAGGTATTACTGTATAGTGAAGCCACAGATGTATACAGTAATACCTTGCTTGTTTTGCCTACTGCCTCGGA
With B18 the “Fold depletion in AML” value [1] was 315.30 Fold and the “Fold depletion in Mef” value [2] was 0.38 Fold.

B19: Mcl1.2018: shRNA, SEQ ID NO: 140 (also SEQ ID NO: 45) (nucleic acid)
chain: TGCTGTTGACAGTGAGCGCGGACTGGTTATAGATTTATAATAGTGAAGCCACAGATGTATTATAAATCTATAACCAGTCCATGCCTACTGCCTCGGA
For B19, the “Fold depletion in AML” value [1] was 11.48 Fold and the “Fold depletion in Mef” value [2] was 3.02 Fold.

B20: Myb.2572: shRNA, SEQ ID NO: 143 (also SEQ ID NO: 52) (nucleic acid)
chain: TGCTGTTGACAGTGAGCGCTCCATGTATCTCAGTCACTAATAGTGAAGCCACAGATGTATTAGTGACTGAGATACATGGAATGCCTACTGCCTCGGA
B20 was tested, and the “Fold depletion in AML” value [1] was 67.47 Fold and the “Fold depletion in Mef” value [2] was 0.92 Fold.

B21: Myb.2652: shRNA, SEQ ID NO: 144 (also SEQ ID NO: 53) (nucleic acid)
chain: TGCTGTTGACAGTGAGCGCCCCAAGTAATACTTAATGCAATAGTGAAGCCACAGATGTATTGCATTAAGTATTACTTGGGATGCCTACTGCCTCGGA
For B21, the “Fold depletion in AML” value [1] was 15.46 Fold and the “Fold depletion in Mef” value [2] was 1.14 Fold.

B22: Myb.670: shRNA, SEQ ID NO: 145 (also SEQ ID NO: 54) (nucleic acid)
chain: TGCTGTTGACAGTGAGCGACACAACCATTTGAATCCAGAATAGTGAAGCCACAGATGTATTCTGGATTCAAATGGTTGTGCTGCCTACTGCCTCGGA
For B22, the “Fold depletion in AML” value [1] was 26.46 Fold and the “Fold depletion in Mef” value [2] was 1.28 Fold.

B23: Bcl2.1422: shRNA, SEQ ID NO: 95 (also SEQ ID NO: 41) (nucleic acid)
chain: TGCTGTTGACAGTGAGCGACCGGGAGAACAGGGTATGATATAGTGAAGCCACAGATGTATATCATACCCTGTTCTCCCGGCTGCCTACTGCCTCGGA
With B23 the “Fold depletion in AML” value [1] was 1,686.19 Fold and the “Fold depletion in Mef” value [2] was 2.71 Fold.

Reference: patent publication US8895526B2, “Identification of RNAI targets and use of RNAI for rational therapy of chemotherapy-resistant leukemia and other cancers” (Cold Spring Harbor Laboratory, priority 2009, dated 2014)
